The target in the assay is T1, CFP-AR-YFP (full length AR with cyan fluorescent protein and yellow fluorescent protein fused to either end) (UniProt P10275 1-920).
T1 construct: Reporter stably expressed in GT1-7 CARY cells; GT1-7 CARY lysates may also contain endogenous mouse AR; also called CARY; C-AR-Y; not shown: cyan fluorescent protein (CFP); yellow fluorescent protein (YFP)
T1 sequence (looked up): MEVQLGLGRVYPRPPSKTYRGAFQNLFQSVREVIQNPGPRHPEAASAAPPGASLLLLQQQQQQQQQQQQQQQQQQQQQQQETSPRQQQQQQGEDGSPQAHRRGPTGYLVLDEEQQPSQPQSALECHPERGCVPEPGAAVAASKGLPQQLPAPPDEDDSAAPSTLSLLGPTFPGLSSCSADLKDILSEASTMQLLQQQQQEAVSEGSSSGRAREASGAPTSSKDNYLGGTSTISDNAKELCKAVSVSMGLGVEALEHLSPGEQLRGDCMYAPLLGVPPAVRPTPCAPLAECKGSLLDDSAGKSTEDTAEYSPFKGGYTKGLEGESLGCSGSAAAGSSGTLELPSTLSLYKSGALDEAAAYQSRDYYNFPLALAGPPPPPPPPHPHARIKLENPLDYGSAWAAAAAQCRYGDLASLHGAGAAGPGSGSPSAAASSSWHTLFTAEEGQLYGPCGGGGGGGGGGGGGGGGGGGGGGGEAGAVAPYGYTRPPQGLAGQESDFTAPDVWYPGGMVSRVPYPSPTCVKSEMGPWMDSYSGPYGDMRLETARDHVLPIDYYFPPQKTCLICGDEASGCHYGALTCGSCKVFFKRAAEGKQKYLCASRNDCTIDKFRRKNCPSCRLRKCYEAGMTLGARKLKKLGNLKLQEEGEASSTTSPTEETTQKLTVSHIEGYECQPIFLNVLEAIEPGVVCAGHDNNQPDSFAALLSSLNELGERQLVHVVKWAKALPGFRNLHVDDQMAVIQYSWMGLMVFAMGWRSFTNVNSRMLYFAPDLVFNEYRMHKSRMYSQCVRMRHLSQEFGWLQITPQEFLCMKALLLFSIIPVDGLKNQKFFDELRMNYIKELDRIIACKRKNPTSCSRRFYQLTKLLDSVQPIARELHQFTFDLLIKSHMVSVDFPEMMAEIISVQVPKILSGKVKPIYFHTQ
The assay can be described thus: co-immunoprecipitation from GT1-7 CARY cell lysates, Western blot. Background: A western blot detects proteins with antibodies after separation by electrophoresis.

B1: FOXM1 (other, mouse, UniProt O08696 1-760, looked up)
chain: MRTSPRRPLILKRRRLPLPVQNAPSETSEEEAKRSPAQPEPAPAQASQEVAESSSCKFPAGIKIINHPTTPNTQVVAIPSNADIQSIITALTAKGKESGTSGPNRFILISSGGPSSHPSQPQAHSSRDSKRAEVITETLGPKPAAKGVPVPKPPGAPPRQRQESYAGGEAAGCTLDNSLTNIQWLGKMSSDGLGPCSVKQELEEKENCHLEQNRVKVEEPSGVSTSWQDSVSERPPYSYMAMIQFAINSTERKRMTLKDIYTWIEDHFPYFKHIAKPGWKNSIRHNLSLHDMFVRETSANGKVSFWTIHPSANRHLTLDQVFKPLEPGSPQSPEHLESQQKRPNPELHRNVTIKTEIPLGARRKMKPLLPRVSSYLEPIQFPVNQSLVLQPSVKVPFRLAASLMSSELARHSKRVRIAPKVLLSSEGIAPLPATEPPKEEKPLLGGEGLLPLLPIQSIKEEEMQPEEDIAHLERPIKVESPPLEEWPSPCASLKEELSNSWEDSSCSPTPKPKKSYCGLKSPTRCVSEMLVTKRREKREVSRSRRKQHLQPPCLDEPDLFFPEDSSTFRPAVELLAESSEPAPHLSCPQEEGGPFKTPIKETLPVSSTPSKSVLSRDPESWRLTPPAKVGGLDFSPVRTPQGAFGLLPDSLGLMELNTTPLKSGPLFDSPRELLNSEPFDLASDPFGSPPPPHVEGPKPGSPELQIPSLSANRSLTEGLVLDTMNDSLSKILLDISFPGLEEDPLGPDNINWSQFIPELR
notes: also called Forkhead Box Protein M1
As to B1, the binding result was “no binding”.

The record behind these values is US20190167756A1 (CITY OF HOPE, published 2019).
